Laboratory results published in patent US20240368258A1 (RUTGERS THE STATE UNIVERSITY OF NEW JERSEY, published 2024).

How the values were obtained:
[1] = molecular target: T1, GRP78 on the surface of MCF-7 human breast cancer cells (human, UniProt P11021 19-654); experiment: whole cell phage-ELISA, monovalent phage on MCF-7 cells
T1 construct: whole, on cells; also called surface GRP78; 78 kDa glucose-regulated protein
Description: FIG. 8. Phage binding on cells. […] Single scFv clones were produced as monovalent phage and tested for binding on MCF-7 in vitro. Briefly, cells were seeded on 96-well plate, blocked and incubated with phage displaying the scFv of interest at different concentrations. After washing, cell surface bound phage were detected with the antiM13-HRP conjugated mAb (GE).
Single scFv clones were produced as monovalent phage and tested for binding on MCF-7 in vitro. Briefly, cells were seeded on 96-well plate, blocked and incubated with phage displaying the scFv of interest at different concentrations. After washing, cell surface bound phage were detected with the antiM13-HRP conjugated mAb (GE). […] Anti-GRP78 phage bind specifically to cells expressing surface GRP78.

[2] = molecular target: T2, EphA5 expressed on H460 human lung carcinoma cells (human, UniProt P54756 25-1037); experiment: whole cell phage-ELISA, monovalent phage on H460 cells
T2 construct: whole, on cells; H226 cells served as the EphA5-negative cell line; also called native EphA5 target; endogenous EphA5 expressed on the cell surface
Description: Single scFv clones were produced as monovalent phage and tested for binding on H460 human lung carcinoma (EphA5 positive) and H226 human lung squamous cell carcinoma (EphA5 negative) cell lines in vitro. Briefly, cells were seeded on 96-well plate, blocked and incubated with phage displaying the scFv of interest at different concentrations. After washing, cell surface bound phage were detected with the antiM13-HRP conjugated mAb (GE).

T2 sequence (P54756 25-1037): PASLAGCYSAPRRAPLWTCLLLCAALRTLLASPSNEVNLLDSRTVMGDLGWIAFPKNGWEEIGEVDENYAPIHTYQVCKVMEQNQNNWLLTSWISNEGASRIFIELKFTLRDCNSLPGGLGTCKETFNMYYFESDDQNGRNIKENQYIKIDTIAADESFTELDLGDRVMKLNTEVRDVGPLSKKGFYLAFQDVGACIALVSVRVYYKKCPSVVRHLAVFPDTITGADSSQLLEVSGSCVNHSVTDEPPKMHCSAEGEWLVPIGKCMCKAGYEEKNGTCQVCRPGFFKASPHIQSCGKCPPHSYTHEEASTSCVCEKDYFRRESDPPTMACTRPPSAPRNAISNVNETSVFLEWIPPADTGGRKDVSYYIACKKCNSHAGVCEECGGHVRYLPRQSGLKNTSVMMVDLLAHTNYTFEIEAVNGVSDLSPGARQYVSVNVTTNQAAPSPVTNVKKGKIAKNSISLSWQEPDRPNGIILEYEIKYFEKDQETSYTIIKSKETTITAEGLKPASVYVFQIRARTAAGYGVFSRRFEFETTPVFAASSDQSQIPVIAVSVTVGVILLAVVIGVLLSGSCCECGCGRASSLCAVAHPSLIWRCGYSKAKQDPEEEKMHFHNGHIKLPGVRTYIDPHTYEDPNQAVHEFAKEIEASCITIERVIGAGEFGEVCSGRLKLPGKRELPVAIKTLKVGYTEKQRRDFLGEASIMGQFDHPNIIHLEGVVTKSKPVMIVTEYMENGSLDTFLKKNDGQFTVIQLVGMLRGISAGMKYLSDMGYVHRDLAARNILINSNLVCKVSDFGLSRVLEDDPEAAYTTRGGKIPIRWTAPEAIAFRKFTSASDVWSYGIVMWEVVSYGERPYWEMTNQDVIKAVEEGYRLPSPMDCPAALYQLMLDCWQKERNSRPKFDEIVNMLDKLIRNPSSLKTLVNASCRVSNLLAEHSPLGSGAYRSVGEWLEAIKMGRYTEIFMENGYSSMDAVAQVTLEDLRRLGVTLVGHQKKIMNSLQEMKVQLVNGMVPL
T1 sequence (P11021 19-654): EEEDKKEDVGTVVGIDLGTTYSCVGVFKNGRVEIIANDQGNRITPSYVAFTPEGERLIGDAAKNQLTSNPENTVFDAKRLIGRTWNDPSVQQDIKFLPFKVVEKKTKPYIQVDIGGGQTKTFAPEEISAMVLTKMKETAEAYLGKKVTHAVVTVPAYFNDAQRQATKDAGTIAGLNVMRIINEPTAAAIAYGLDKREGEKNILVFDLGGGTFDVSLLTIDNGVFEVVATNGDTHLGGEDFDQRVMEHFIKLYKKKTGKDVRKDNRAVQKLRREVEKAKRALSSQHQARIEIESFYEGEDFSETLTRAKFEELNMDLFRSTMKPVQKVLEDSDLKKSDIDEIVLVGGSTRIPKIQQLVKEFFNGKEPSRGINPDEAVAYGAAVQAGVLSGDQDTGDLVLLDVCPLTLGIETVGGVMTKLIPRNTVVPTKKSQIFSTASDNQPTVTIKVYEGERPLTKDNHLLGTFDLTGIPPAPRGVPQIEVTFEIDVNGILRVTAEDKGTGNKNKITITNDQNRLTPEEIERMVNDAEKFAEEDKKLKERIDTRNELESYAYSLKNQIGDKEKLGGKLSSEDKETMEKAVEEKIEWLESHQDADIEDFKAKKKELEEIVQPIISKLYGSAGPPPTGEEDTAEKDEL

Binder	binding result [1]	binding result [2]
antiGRP78_B4 scFv (scFv) scFv: SYVLTQPPSVSVAPGKTATITCGGDDIGSKSVHWYQQKPGQAPVLVVYDDGDRPSGIPERFSGSNSGNTATLAISRVEAGDEADYYCQVWDSSSDQYVFGSGTKLTVLSGGSTITSYNVYYTKLSSSGTQVRLQESGPGLVKPSQTLSLTCTVSGGSISSGGYYWSWIRQHPGKGLEWIGYIYYSGSTYYNPSLESRVTISVDTSKNQFSLKLSSVTAADTAVYYCARYSSIDAFEIWGQGTMVTVSS	binds	–
antiEphA5_F31 scFv (scFv) scFv: SYELTQPPSVSVAPGKTARITCEGNNIGSKGVHWYQQKPGQAPALVVYDGSDRPSGIPERFSGSNSGNTATLTISRVEAGDEADYYCQVWDNSSDHPNYVFGTRTKLTVLSGGSTKTSYNVYYTKLSSSGTQVQLVETGGGLVQPGGSLRLSCAASGFTFSSYAMSWVRQAPGKGLEWVSAISGSGGSTYYADSVKGRFTISRDNSKNTLYLQMNSLRAEDTAVYYCARVAAGDYWGQGTLVTVSS	–	binds

The remaining lines, values ahead:

binding result [1]	binding result [2]	Binder
binds	–	antiGRP78_F6 scFv (scFv) scFv: SYELTQPHSVSVAPGQTARITCGGDNIGSKSVHWYQQRPGQAPVLVVYDDSDRPSGIPERFSGSNSENTATLTISGVEAGDEADYYCQVWDSTSHHVVFGGGTKLTVLSGGSTITSYNVYYTKLSSSGTQVQLQQSGPGLVKPPQTLSLTCAISGDSVSSNSAAWNWIRQSPSRGLEWLGRTYYRSKWYNDYAVSVKSRITINPDTSKNQFSLQLNSVTPEDTAVYYCARDPYYYDSSGYYYFDAFDIWGQGTMVTVSS
–	binds	antiEphA5_T22 scFv (scFv) scFv: QPVLTQSSSLSASPGASVSLTCTLRSGINVGPYRMYWYQQKPGSPPQYLLSYKSDSDTQQASGVPSRFSGSKDASANAGILLISGLQSEDEADYYCMIWHNNAVVFGGGTKLTVLSGGSTITSYNVYYTKLSSSGTQVQLVQSGTEVKKPGASVKVSCKVSGYSLSELSMHWVRQAPGKGLEWMGSFDPEDGETTYAQRFQGRVTMTEDTSTDTAYMELRSLTSDDTAVYYCAREIWSGYAYFDLWGRGTLVTVSS
